Data from patent US20240123088A1.

Target: RmaDnaB-SpdCas9C (Rhodothermus marinus DnaB C-intein fused to the C-terminal split SpdCas9, HA-tagged) (Rhodothermus marinus (C-intein); Streptococcus pyogenes (dCas9 half)) (UniProt Q99ZW2)
Assay: cell-based or functional assay

For “SpdCas9N-RmaDnaB (N-terminal split SpdCas9 fused to the Rhodothermus marinus DnaB N-intein, FLAG-tagged)”, which in vivo reconstitution of tsdCas9, Western blot band intensity, mouse striatum co-transduced with AAV9 is on record?
Its in vivo reconstitution of tsdCas9, Western blot band intensity, mouse striatum co-transduced with AAV9 is over 50%.
